Source: patent publication US20140286952A1 (BOARD OF SUPERVISORS FOR THE UNIVERSITY OF LOUISIA SYSTEM …, published 2014)

Legend:
[1] = target: zonula occludens-1 (ZO-1), endogenous protein of prostate cancer cells and tumor specimens (UniProt Q07157); assay: in situ proximity ligation assay in PC-3CTRwt cells, 50 nM CT for 30 seconds
[2] = target: zonula occludens-1 (ZO-1), endogenous protein of prostate cancer cells and tumor specimens (UniProt Q07157); assay: cell-based or functional assay
[3] = target: T1, zonula occludens-1 (ZO-1), endogenous protein of prostate cancer cells and tumor specimens (UniProt Q07157 1-1748, limits assumed); assay: GST pull-down from PC-3 cell lysates, ZO-1 immunoblot
T1 construct: whole, on cells; Intracellular protein; detected in cell lysates or fixed cells with anti-ZO-1 serum; The cells and tissues are human; also called tight junction protein 1; TJP-1
T1 sequence (Q07157 whole entry): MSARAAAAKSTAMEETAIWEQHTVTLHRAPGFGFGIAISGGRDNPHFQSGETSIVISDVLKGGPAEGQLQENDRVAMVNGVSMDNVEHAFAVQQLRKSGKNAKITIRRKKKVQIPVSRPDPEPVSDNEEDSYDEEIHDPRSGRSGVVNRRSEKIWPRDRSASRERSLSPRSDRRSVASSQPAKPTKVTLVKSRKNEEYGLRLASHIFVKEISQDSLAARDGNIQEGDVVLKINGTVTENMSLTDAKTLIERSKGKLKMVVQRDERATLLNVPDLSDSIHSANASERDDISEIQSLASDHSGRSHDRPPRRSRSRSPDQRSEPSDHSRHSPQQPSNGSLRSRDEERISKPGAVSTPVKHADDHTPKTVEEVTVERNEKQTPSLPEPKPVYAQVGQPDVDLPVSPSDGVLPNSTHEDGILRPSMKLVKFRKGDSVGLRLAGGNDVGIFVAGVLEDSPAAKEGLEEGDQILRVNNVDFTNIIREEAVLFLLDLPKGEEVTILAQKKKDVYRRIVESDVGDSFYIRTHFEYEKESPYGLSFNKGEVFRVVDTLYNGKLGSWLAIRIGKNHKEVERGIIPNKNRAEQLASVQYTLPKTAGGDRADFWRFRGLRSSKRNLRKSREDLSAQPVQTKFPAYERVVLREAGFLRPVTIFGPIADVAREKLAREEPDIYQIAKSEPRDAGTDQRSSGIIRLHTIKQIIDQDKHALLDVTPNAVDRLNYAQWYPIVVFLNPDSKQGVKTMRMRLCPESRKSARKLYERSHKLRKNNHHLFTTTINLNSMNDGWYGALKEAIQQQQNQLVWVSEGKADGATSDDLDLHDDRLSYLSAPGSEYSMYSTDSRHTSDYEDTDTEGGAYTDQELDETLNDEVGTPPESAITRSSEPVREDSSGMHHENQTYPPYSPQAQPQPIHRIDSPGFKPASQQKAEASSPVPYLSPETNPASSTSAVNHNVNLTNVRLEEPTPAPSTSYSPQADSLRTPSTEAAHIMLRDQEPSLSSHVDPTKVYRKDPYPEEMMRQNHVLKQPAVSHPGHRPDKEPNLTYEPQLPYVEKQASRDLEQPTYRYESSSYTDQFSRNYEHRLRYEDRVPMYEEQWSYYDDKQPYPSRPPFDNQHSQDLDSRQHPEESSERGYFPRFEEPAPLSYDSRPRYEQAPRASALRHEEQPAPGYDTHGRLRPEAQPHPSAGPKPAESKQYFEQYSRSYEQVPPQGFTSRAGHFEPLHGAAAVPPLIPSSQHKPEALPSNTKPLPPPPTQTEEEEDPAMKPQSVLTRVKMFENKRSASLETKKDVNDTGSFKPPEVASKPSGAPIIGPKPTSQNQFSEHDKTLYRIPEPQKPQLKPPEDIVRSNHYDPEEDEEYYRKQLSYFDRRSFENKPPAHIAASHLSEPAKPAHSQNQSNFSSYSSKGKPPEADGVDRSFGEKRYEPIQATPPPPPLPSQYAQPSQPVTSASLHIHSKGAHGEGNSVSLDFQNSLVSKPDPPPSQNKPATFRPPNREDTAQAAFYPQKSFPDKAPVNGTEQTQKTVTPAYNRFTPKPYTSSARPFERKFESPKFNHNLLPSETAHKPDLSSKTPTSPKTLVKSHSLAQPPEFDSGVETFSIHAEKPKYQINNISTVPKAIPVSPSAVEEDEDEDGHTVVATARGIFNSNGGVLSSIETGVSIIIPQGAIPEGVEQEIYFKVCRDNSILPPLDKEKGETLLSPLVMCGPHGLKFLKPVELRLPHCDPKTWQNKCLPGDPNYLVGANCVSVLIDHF

[4] = target: T1, zonula occludens-1 (ZO-1), endogenous …; assay: in situ proximity ligation assay in PC-3CTRΔESS cells
[5] = target: T2, ZO-1wt-YFP (wild-type ZO-1 fused to yellow fluorescent protein, ZO-1wt-EYFP-N1) (UniProt Q07157 1-1748); assay: acceptor photobleaching FRET microscopy in live PC-31 cells
T2 construct: whole, on cells; also called ZO-wt-YFP; ZO-1-YFP; not shown: EYFP of the EYFP-N1 plasmid
T2 sequence (Q07157 whole entry, the tested form may be a part): as the sequence (Q07157 whole entry) above

zonula occludens-1 (ZO-1), endogenous protein of prostate cancer cells and tumor specimens (UniProt Q07157), sequence (Q07157 whole entry): as above

## FLAG-CTRwt (full-length wild-type calcitonin receptor, FLAG-tagged, expressed in PC-3 / PC-31 cells) (from UniProt P30988 25-474)
[1]
  fold increase in CTR-ZO-1 interactions (PLA dots) after CT against no CT: 80 fold
[2]
  decrease in transepithelial electric resistance (TER) of polarized PC-3 cells: 40%
  invasion through Matrigel after 50 nM CT: 2.5 fold

B1: GST-CTR-CΔESS fusion protein (GST fused to the intracellular C-terminal domain of CTRΔESS, aa 441-476) (other, human, UniProt P30988 441-474, looked up)
chain: YICHQELRNEPANNQGEESAEIIPLNIIEQAAAA
notes: range 441-476; also called CTR-C-ΔPDZ; not shown: GST from the pGEX vector
[3]
  binding result: no binding (tested: 2 µg fusion protein)

B2: FLAG-CTRΔESS (full-length calcitonin receptor with the C-terminal PDZ-binding motif ESSA replaced by AAAA, FLAG-tagged) (receptor, human, UniProt P30988 25-474, looked up)
chain: AFSNQTYPTIEPKPFLYVVGRKKMMDAQYKCYDRMQQLPAYQGEGPYCNRTWDGWLCWDDTPAGVLSYQFCPDYFPDFDPSEKVTKYCDEKGVWFKHPENNRTWSNYTMCNAFTPEKLKNAYVLYYLAIVGHSLSIFTLVISLGIFVFFRSLGCQRVTLHKNMFLTYILNSMIIIIHLVEVVPNGELVRRDPVSCKILHFFHQYMMACNYFWMLCEGIYLHTLIVVAVFTEKQRLRWYYLLGWGFPLVPTTIHAITRAVYFNDNCWLSVETHLLYIIHGPVMAALVVNFFFLLNIVRVLVTKMRETHEAESHMYLKAVKATMILVPLLGIQFVVFPWRPSNKMLGKIYDYVMHSLIHFQGFFVATIYCFCNNEVQTTVKRQWAQFKIQWNQRWGRRPSNRSARAAAAAAEAGDIPIYICHQELRNEPANNQGEESAEIIPLNIIEQAAAA
notes: whole, on cells; also called FLAG-CTR-ΔPDZ; CTRΔPDZ; not shown: FLAG tag at the 5' end of the construct
[4]
  binding result: no binding

B3: CTRΔESS-CFP (calcitonin receptor with ESSA replaced by AAAA, fused to cyan fluorescent protein, CTRΔESS-ECFP-N1) (receptor, human, UniProt P30988 25-474, looked up)
chain: B2 chain
notes: whole, on cells; also called CTRΔESS (CTRΔPDZ)-CFP; not shown: ECFP of the ECFP-N1 plasmid
[5]
  binding result: no binding
